The source of these data is the nanobody polyreactivity screen of Harvey et al. (2022).

The data set in a line: yeast display, Sf9 membrane polyspecificity reagent, FACS + sequencing; frameworks hold sequencing errors. The essentials:
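Galactose induction of a Saccharomyces cerevisiae BJ5465 synthetic nanobody display library ran 36–48 hours. The cells were then stained for 1 hour at 4 °C with 10% biotinylated, detergent-solubilized Sf9 membrane reagent, pulled down on streptavidin microbeads and FACS-sorted into low and high (top ~1%) gates on expression and reagent-binding fluorescence. Labels for polyreactivity follow the gate of origin.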
On to “QVQLVESGGGLVQAGGSLRLSCAASGSIFDNAMGWYRQAPGKERELVAAISLSGSRTYYADSVKGRFTISRDNAKNTVYLQMNSLKPEDTAVYYCNTELVYYSTYDYWGQGTQVTVSS”, for which the “polyreactivity (PSR sort gate)” value is “low polyreactivity”.
The value for “QVQLVESGGGLVQAGGSLRLSCAASGSIFDPNAMGWYRQAPGKEREFVAAISYGGGSTTYADSVKGRFTISRDNAKNTVYLQMNSLKPEDTAVYYCAAGFYTYPTWFHPGYLFSAGDYWGQGTQVTVSS” was “low polyreactivity”; that for “QVQLVESGGGLVQAGGSLRLSCAASGSIFDPNAMGWYRQAPGKERELVAAITSGGGSTYYADSVKGRFTISRDNAKNTVYLQMNSLNPEDTAVYYCNKVFVLPYKFVAWFDYWGQGTQVTVSS” was “low polyreactivity”.
Regarding “QVQLVESGGGLVQAGGSLRLSCAASGSIFDPYAMGWYRQAPGKERELVAAINGGSGSTFYADSVKGRFTISRDNAKNTVYLQMNSLKPEDTAVYYCAAKIWRYSPSYYPEPRGDYWGQGTQVTVSS”, the “polyreactivity (PSR sort gate)” value is on record as “low polyreactivity”.
In the case of “QVQLVESGGGLVQAGGSLRLSCAASGSIFDPYAMGWYRQAPGKERELVAAITYSVGGTTYYADSVKGRFTISRDNAKNTVYLQMNSLKPEDTAVYYCAAEWWGNPFDYWGQGTQVTVSS”, the “polyreactivity (PSR sort gate)” value is recorded as “high polyreactivity”.
The value for “QVQLVESGGGLVQAGGSLRLSCAASGSIFDPYAMGWYRQAPRKERELVAAIRWSGTSTYYADSVMGRFTISRDNAKNTVYLQMNSLKPEDTAVYYCAARGSKGFSSPFGYWGQGTQLTVSS” was “high polyreactivity”.
In the case of “QVQLVESGGGLVQAGGSLRLSCAASGSIFDQNAMVWYRQAPGKERELVAAITRGGSTKYADSVKGRFTISRDNAKNTVYLQMNSLKPEDTAVYYCARTARRRYQPYEYWGQGTQVTVSS”, the “polyreactivity (PSR sort gate)” value is “low polyreactivity”.
For the sequence “QVQLVESGGGLVQAGGSLRLSCAASGSIFDRYAMGWYRQAPGKERELVAAISKSGGRTYYADSVKGRLTISRDNAKNTVYLQMNSLKPEDTAVYYCAADPLLGYLSHYYWGQGTQVTVSS”, the “polyreactivity (PSR sort gate)” value is on record as “high polyreactivity”.
As to “QVQLVESGGGLVQAGGSLRLSCAASGSIFDRYAMGWYRQAPGKERELVAAISTGGSTNYADSVKGRFTISRDNAKNTVYLQMNSLKPEDTAVYYCAARYLYRMYYWGQGTQVTVSS”, the “polyreactivity (PSR sort gate)” value is recorded as “low polyreactivity”.
The value for “QVQLVESGGGLVQAGGSLRLSCAASGSIFDRYAMGWYRQAPGKERELVASIRQRGGSTYYADSVKGRFTISRDNAKNTVYLQMNSLKPEDTAVYYCAARKYPFRQSTYDYWGQGTQVTVSS” was “low polyreactivity”; that for “QVQLVESGGGLVQAGGSLRLSCAASGSIFDRYGMGLYRQAPGKETELVADITSDGSTNYADSLKGRFTISRDNAKNSVYLQMNSLKREDTAVYYCAVSYTAYYVGYDYWGQGTQVTVSS” was “low polyreactivity”; that for “QVQLVESGGGLVQAGGSLRLSCAASGSIFDRYGMGWYRQAPGKERELVADITSDGSTNYADSVKGRFTISRDNAKNTVYLQMNSLKPEDTAVYYCAVSYTAYSVGYDYWGQGTQVTVSS” was “low polyreactivity”.
Consider “QVQLVESGGGLVQAGGSLRLSCAASGSIFDRYVMGWYRQAPGKERELVAAITTSGDGTYYADSVKGRFTISRDNAKNTVYLQMNSLKPEDTAVYYCAAVRRSWKYSTSDYWGQGTQVTVSS”, for which the “polyreactivity (PSR sort gate)” value is “low polyreactivity”.
The value for “QVQLVESGGGLVQAGGSLRLSCAASGSIFDSYAMGWYRPEPGKERELVAAISSGGSTNYADSVKGRFTISRDNEKNTVYLQMNSLKPEDTAVYYCAADGSLDAYNYWGQGTQVTVSS” was “low polyreactivity”; that for “QVQLVESGGGLVQAGGSLRLSCAASGSIFDSYAMGWYRQAPGKERELVAAISWSGGSTYYADSVKGRFTISRDTAKNTVYLQMNSLKPDDTAVYYCNTDWADYYYYTDYDYWGQGTQLTVSS” was “high polyreactivity”.
The value for “QVQLVESGGGLVQAGGSLRLSCAASGSIFDTNAMGWYIQAPGKEREFVGTITNSGGRTYYADSVKGRFTISRDNAKNTVYLQMNSLKPEDTAVYYCNADVHRFSGNGYRYYYWGQGTQVTVSS” was “low polyreactivity”; that for “QVQLVESGGGLVQAGGSLRLSCAASGSIFDTYAMGWYRQAPGKERELVAAITWSGSSTYYADSVKGRFTISRDNAKNTVYLQMNSLKPEDTAVYYCAKDYYVEVTTEYDYWGQGTQVTVSS” was “high polyreactivity”.
On to “QVQLVESGGGLVQAGGSLRLSCAASGSIFDVNAMGWYRQAPGKERELVAAISQRGTRTYYADSVKGRFTISRDNAKNTVYLQMNSLKPEDTAVYYCNRGGWRQYDSWGQGTQVTVSS”, for which the “polyreactivity (PSR sort gate)” value is “high polyreactivity”.
Consider “QVQLVESGGGLVQAGGSLRLSCAASGSIFDVNAMGWYRQAPGKERELVAAISQRGTRTYYADSVKGRFTISRENAKNTVYLQMNSLKPEDTAVYYCNRGGWRQYDSWGQGTQVTVSS”, for which the “polyreactivity (PSR sort gate)” value is “high polyreactivity”.
Turning to “QVQLVESGGGLVQAGGSLRLSCAASGSIFDVNTMGWYRQAPGKERELVAAITNGDRTNYADSVKGRFTISRDNAKNTVYLQMNSLKPEDTAVYYCAADSVLDRPVLYLWPWYLGDYWGQGTQVTVSS”, the “polyreactivity (PSR sort gate)” value is on record as “low polyreactivity”.
Turning to “QVQLVESGGGLVQAGGSLRLSCAASGSIFDVYDMGWYRQAPGKERELVASISDSGSSTYYADSVKGRFTISRDNAKNTVYLQMNSLKPEDTAVYYCAAGYYVDRSIYNYWGQGTQVTVSS”, the “polyreactivity (PSR sort gate)” value is recorded as “low polyreactivity”.
As to “QVQLVESGGGLVQAGGSLRLSCAASGSIFDWNAMGWYRQAPGKERELVAAIRRGGSTYYADSVKGRFTISRDNAKNTVYLQMNSLKPEDTAVYYCATRFYSRYYILDYDYWGQGTQLTVSS”, the “polyreactivity (PSR sort gate)” value is given as “high polyreactivity”.
Take “QVQLVESGGGLVQAGGSLRLSCAASGSIFDWNAMGWYRQAPGKERELVAAISGTGGTKYADSVKGRFTISRDNAKNTVYLQMISLKPEDTAVYYCAVGLVPLRDGWHFYYEFDSWGQGTQVTVSS”: the “polyreactivity (PSR sort gate)” value was “low polyreactivity”.
“QVQLVESGGGLVQAGGSLRLSCAASGSIFDWNSMGWYRQAPGKERELVATISWDGGSTYYADSVKGRFTISLDNAKNTVYLQMNSLKPEDTAVYYCATVFTGKPAYYARTKYDYWGQGTQVTVSS”: the “polyreactivity (PSR sort gate)” value was “low polyreactivity”.
Take “QVQLVESGGGLVQAGGSLRLSCAASGSIFDYNAMGWYRQAPGKERELVAAITYSGGTTYADSVKGRFTISRDNAKNTVYLQMNSLKPEDTAVYYCNADVYRWSGSYTGWDSWHDYWGQGTQVTVSS”: the “polyreactivity (PSR sort gate)” value was “low polyreactivity”.
Turning to “QVQLVESGGGLVQAGGSLRLSCAASGSIFDYNAMGWYRTAPGKERELVAAITGSGGSTYYADSVKGRFTISRDNAKNTVYLQMNSLTQEDTAVYYCAAPVDYRRYEYEYWGQGTQVTLSS”, the “polyreactivity (PSR sort gate)” value is recorded as “low polyreactivity”.
As for “QVQLVESGGGLVQAGGSLRLSCAASGSIFDYNGMGWYRQAPGKERELVAAISSGGSTNYADSVKGRFTISRDNAKNTVYLQMNSLKPEDTAVYYCAAVGRAKYYYWGQGTQVTVSS”, the “polyreactivity (PSR sort gate)” value was “low polyreactivity”.
Regarding “QVQLVESGGGLVQAGGSLRLSCAASGSIFDYYAMGWYRQAPGKERELVAAISWRGGRTYYADSVKGRFTISRDNAKNTVYLQMNSLKPEDTAVYYCAAYFQRSGFSFRLRGQGTQVTVSS”, the “polyreactivity (PSR sort gate)” value is recorded as “high polyreactivity”.
Regarding “QVQLVESGGGLVQAGGSLRLSCAASGSIFDYYAMGWYRQAPGKERELVAAISWSGGSTYYADSVKGRFTISRDNAKNTVYLQMNSLKPEDTAVYYCAAEYYGGELDYWGQGTQVTVSS”, the “polyreactivity (PSR sort gate)” value is “low polyreactivity”.
On to “QVQLVESGGGLVQAGGSLRLSCAASGSIFDYYAMGWYRQAPGQERELVAAISVRGGSTYYADSVKGRFTISRDNANNTVYLHKNSLKPEDTAVYYCAADYAYNKYLSVEYWGQGTQVTVSS”, for which the “polyreactivity (PSR sort gate)” value is on record as “low polyreactivity”.
On to “QVQLVESGGGLVQAGGSLRLSCAASGSIFDYYTMGWYRQAPGKERELVATIRSGDSTNYADSVKGRFTISRDNAKNTVYLQMNSLIPEDTAVYYCAADDGAYPTLYDYWGQGTQVTVST”, for which the “polyreactivity (PSR sort gate)” value is “low polyreactivity”.
Regarding “QVQLVESGGGLVQAGGSLRLSCAASGSIFDYYTMGWYRQAPGKEREWVAAITRSGGRTYYADSVKGRFTISRDNAKNTVYLQMNSLKPEDTAVYYCATRAVSRFGNGPYDYWGQGTQVTVSS”, the “polyreactivity (PSR sort gate)” value is “high polyreactivity”.
As for “QVQLVESGGGLVQAGGSLRLSCAASGSIFEEYALGSSRQAPGKERELVAAISRSGGSTYYADSVKGRFTISRDNAKNSVYLQMNSLKPEDTAVYYCAAEWVYGYRFGYWGQGTQVTVSS”, the “polyreactivity (PSR sort gate)” value is listed as “low polyreactivity”.
The value for “QVQLVESGGGLVQAGGSLRLSCAASGSIFEGNGMGWYRPAPGKERELVAAITFRSGSTYYADSVKGRFTISRDNAKNTVYLQMNSLKPEDTAVYYCAADEYYQVSAYDYWGQGTQVTVSS” was “low polyreactivity”; that for “QVQLVESGGGLVQAGGSLRLSCAASGSIFEGNSMGWYRQAPGKERELVAAISRRGGRTYYADSVKGRFTISRDNAKKTVFLQMNSLKPEDTAVYYCNALYFRVGRYQTYSDKFDYWGQGTQVTVSS” was “high polyreactivity”.
In the case of “QVQLVESGGGLVQAGGSLRLSCAASGSIFEGYAMGWYRQAPGKERELVAVITTSGGDTYYADSVKGRFTISRDNAKNTVYLQMNSLKPEDTAVYYCNAADAVSDYPDFHIYDYWGQGTQVTVSS”, the “polyreactivity (PSR sort gate)” value is listed as “low polyreactivity”.
“QVQLVESGGGLVQAGGSLRLSCAASGSIFEGYVMGWYRQAPGKERELVATISFSGGSTYYADSVKGRFTISRDNAKNTVYLQMNSLKPEDTAVYYCNALVYHTKGDYGYWGHGTQVTVSS”: the “polyreactivity (PSR sort gate)” value is “low polyreactivity”.
Turning to “QVQLVESGGGLVQAGGSLRLSCAASGSIFEGYVMGWYRQAPGKERELVATISFSGGSTYYADSVKGRFTISRDNAKNTVYLQMTSLKPEDTAVYFCNALVYHTKGDYGYWGQGTQVTVSS”, the “polyreactivity (PSR sort gate)” value is “low polyreactivity”.
As to “QVQLVESGGGLVQAGGSLRLSCAASGSIFEIYDMGWYRQAPGKERELVASITWSGGSTYYADSVKGRFTISRDNAKNTVYLQMNSLKPEDTAVYYCATDKLYGRTVRMDYWGQGTQVSVSS”, the “polyreactivity (PSR sort gate)” value is given as “low polyreactivity”.
On to “QVQLVESGGGLVQAGGSLRLSCAASGSIFEPYAMGGYRQAPWTERELVAAIRVSGGSTYYADSVKGRFTISRDNAKNTVYLQMNSLKPEDTAVYYCGPDWWSRYYYWGQGTQVTVSS”, for which the “polyreactivity (PSR sort gate)” value was “high polyreactivity”.
For “QVQLVESGGGLVQAGGSLRLSCAASGSIFEPYAMGWYRQAPGKERELVAAISWDVGRTYYADSVKGRFTISRDNAKNTVYLQMNSLKPEDTAVYYCAAEIAIDGYYKSWYDYWGQGTQVTVSS” the value was “high polyreactivity”.
